Experimental findings from patent publication US20150147274A1 (CANCER RESEARCH TECHNOLOGY, published 2015) are described below.

This test concerns the target T1, MET928 (cMET protein derived from construct 25-928) (human, UniProt P08581 25-928).
T1 construct: MET ectodomain, residues 1-24 are the leader; produced in Lec 8 cells; background text says the ectodomain is furin-cleaved into alpha (25-307) and beta chains; biotinylated form used in selections; also called MET928 extracellular domain; Met extracellular domain
The experiment in a line: ELISA, soluble scFv. Background: ELISA stands for enzyme-linked immunosorbent assay.

Substitutions are numbered along the chain they refer to.

T1 sequence (P08581 25-928): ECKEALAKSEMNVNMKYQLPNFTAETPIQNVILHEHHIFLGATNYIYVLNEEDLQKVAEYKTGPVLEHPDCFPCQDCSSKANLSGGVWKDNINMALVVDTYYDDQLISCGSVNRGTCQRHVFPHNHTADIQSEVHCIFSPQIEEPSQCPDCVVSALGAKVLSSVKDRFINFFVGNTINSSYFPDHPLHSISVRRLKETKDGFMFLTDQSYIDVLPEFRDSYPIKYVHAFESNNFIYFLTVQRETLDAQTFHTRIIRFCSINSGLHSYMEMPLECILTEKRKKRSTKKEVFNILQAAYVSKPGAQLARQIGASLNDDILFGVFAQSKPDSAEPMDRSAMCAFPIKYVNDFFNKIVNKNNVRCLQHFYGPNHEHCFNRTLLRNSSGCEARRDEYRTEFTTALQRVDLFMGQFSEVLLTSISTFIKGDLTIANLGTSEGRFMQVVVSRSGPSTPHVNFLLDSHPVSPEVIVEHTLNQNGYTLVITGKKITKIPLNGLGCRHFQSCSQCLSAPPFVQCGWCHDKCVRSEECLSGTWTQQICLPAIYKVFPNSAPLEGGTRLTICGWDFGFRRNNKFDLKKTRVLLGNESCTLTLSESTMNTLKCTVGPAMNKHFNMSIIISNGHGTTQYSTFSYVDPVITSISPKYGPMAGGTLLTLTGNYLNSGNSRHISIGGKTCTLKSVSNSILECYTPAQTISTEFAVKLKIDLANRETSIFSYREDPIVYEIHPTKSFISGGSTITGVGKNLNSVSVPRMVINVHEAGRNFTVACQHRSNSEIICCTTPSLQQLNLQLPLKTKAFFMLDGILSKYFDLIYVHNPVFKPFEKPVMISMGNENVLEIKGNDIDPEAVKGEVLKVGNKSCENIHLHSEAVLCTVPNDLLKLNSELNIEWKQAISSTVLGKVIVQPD

B1: 107_B12 (scFv)
scFv: QMQLVQSGAEVKKPGAPVKVSCKVSGYTFTDYYMHWVQQAPGKGLEWMGLVDPEDGETIYAEKFQGRVTITADTSTDTAYMELSSLRSEDTAVYYCATDATTPYWGMTAWGQGTLVTVSSLEGGGGSGGGGSGGGASDIQMTQSPSSLSASVGDRVTITCQASQDISNYLNWYQQKPGRAPKVLIYDASNLETGVPSRFSGSGSGTEFTLTISNLRPDDFATYYCQQGDSFPLTFGGGTKVEIK
notes: not shown: 6xHis/tri-FLAG tags
Consider B1, for which the binding result is “binds”.

B2: 108_G3 (scFv)
scFv: B1 scFv with G106A, M107P, T108W, A109R
notes: as for B1
As to B2, the binding result is reported as “binds”.

B3: 108_D5 (scFv)
scFv: B1 scFv with G106S, M107P, T108H, A109T
notes: as for B1
For the molecule B3, the binding result is “binds”.

B4: 109_H11 (scFv)
scFv: B1 scFv with T108A, A109Q
notes: as for B1
On to B4, for which the binding result is “binds”.

B5: 108_G1 (scFv)
scFv: B1 scFv with G106F, M107P, T108R, A109M
notes: as for B1
On to B5, for which the binding result was “binds”.

B6: 108_C11 (scFv)
scFv: B1 scFv with G106F, M107P, T108I, A109I
notes: as for B1
In the case of B6, the binding result was “binds”.

B7: 109_H9 (scFv)
scFv: B1 scFv with A109K
notes: as for B1
Turning to B7, the binding result is reported as “binds”.

B8: 109 H2 (scFv)
scFv: B1 scFv with T108W, A109E
notes: as for B1
On to B8, for which the binding result is listed as “binds”.

B9: 109_H3 (scFv)
scFv: B1 scFv with T108Q, A109Q
notes: as for B1
In the case of B9, the binding result was “binds”.

B10: 107_C5 (scFv)
scFv: B1 scFv with G106Y, M107P, T108I, A109V
notes: as for B1
As for B10, the binding result was “binds”.

B11: 108_D12 (scFv)
scFv: B1 scFv with G106T, M107P, T108Y, A109V
notes: as for B1
For B11, the binding result was “binds”.

B12: 108_E5 (scFv)
scFv: B1 scFv with T108W, A109I
notes: as for B1
In the case of B12, the binding result is reported as “binds”.

B13: 108_G6 (scFv)
scFv: B1 scFv with G106F, M107P, T108V, A109W
notes: as for B1
As for B13, the binding result is given as “binds”.

B14: 109_G10 (scFv)
scFv: B1 scFv with G106F, M107P, T108R, A109V
notes: as for B1
Consider B14, for which the binding result is recorded as “binds”.

B15: 110_A5 (scFv)
scFv: B1 scFv with G106Y, M107P, T108F, A109V
notes: as for B1
Take B15: the binding result was “binds”.

B16: 108_D7 (scFv)
scFv: B1 scFv with T108D, A109M
notes: as for B1
Regarding B16, the binding result was “binds”.

B17: 107_C1 (scFv)
scFv: B1 scFv with T108S, A109M
notes: as for B1
As to B17, the binding result is given as “binds”.

B18: 110_A9 (scFv)
scFv: B1 scFv with T108A, A109G
notes: as for B1
Take B18: the binding result is reported as “binds”.

B19: 108_E8 (scFv)
scFv: B1 scFv with G106W, T108Q, A109K
notes: as for B1
Regarding B19, the binding result is “binds”.

B20: 108_F3 (scFv)
scFv: B1 scFv with T108A, A109K
notes: as for B1
As for B20, the binding result was “binds”.

B21: 109_G8 (scFv)
scFv: B1 scFv with T108A, A109T
notes: as for B1
As for B21, the binding result is listed as “binds”.

B22: 110_A8 (scFv)
scFv: B1 scFv with G106C, T108A, A109I
notes: as for B1
In the case of B22, the binding result is reported as “binds”.

B23: 107_C4 (scFv)
scFv: B1 scFv with G106S, M107P, T108W, A109M
notes: as for B1
B23: the binding result was “binds”.

B24: 109_G11 (scFv)
scFv: B1 scFv with G106W, M107T, T108A, A109N
notes: as for B1
For the molecule B24, the binding result was “binds”.

B25: 108_D10 (scFv)
scFv: B1 scFv with T108S, A109H
notes: as for B1
Consider B25, for which the binding result is given as “binds”.

B26: 108_D3 (scFv)
scFv: B1 scFv with G106F, M107P, T108Y, A109V
notes: as for B1
Take B26: the binding result is recorded as “binds”.

B27: 109_H8 (scFv)
scFv: B1 scFv with G106F, M107P, T108R, A109S
notes: as for B1
In the case of B27, the binding result was “binds”.

B28: 107_C2 (scFv)
scFv: B1 scFv with T108V, A109K
notes: as for B1
On to B28, for which the binding result is on record as “binds”.

B29: 108_G5 (scFv)
scFv: B1 scFv with G106W, T108Q, A109S
notes: as for B1
Turning to B29, the binding result is recorded as “binds”.

B30: 110_A2 (scFv)
scFv: B1 scFv with T108S, A109T
notes: as for B1
Regarding B30, the binding result was “binds”.

B31: 108_F11 (scFv)
scFv: B1 scFv with A100G, T101S, T102N, P103L, Y104S, G106Q, T108D, A109V
notes: as for B1
For the molecule B31, the binding result is “binds”.

B32: 108_E1 (scFv)
scFv: B1 scFv with G106F, M107P, T108L, A109V
notes: as for B1
B32: the binding result was “binds”.

B33: 110_A3 (scFv)
scFv: B1 scFv with M107V, T108Q, A109V
notes: as for B1
For the molecule B33, the binding result is “binds”.

B34: 108_C8 (scFv)
scFv: B1 scFv with G106F, M107P, T108Y, A109I
notes: as for B1
As for B34, the binding result is “binds”.

B35: 108_E10 (scFv)
scFv: B1 scFv with G106F, M107P, T108W, A109V
notes: as for B1
In the case of B35, the binding result is recorded as “binds”.

B36: 108_C12 (scFv)
scFv: B1 scFv with T108A, A109S
notes: as for B1
With B36, the binding result is “binds”.

B37: 108_F2 (scFv)
scFv: B1 scFv with T108S, A109S
notes: as for B1
For the molecule B37, the binding result is on record as “binds”.

B38: 108_D4 (scFv)
scFv: B1 scFv with T108S, A109G
notes: as for B1
Take B38: the binding result is listed as “binds”.

B39: 108_F6 (scFv)
scFv: B1 scFv with W105C, G106C, M107T, T108I, A109E
notes: as for B1
In the case of B39, the binding result is given as “binds”.

B40: 108 E2 (scFv)
scFv: B1 scFv with G106T, M107P, T108W, A109V
notes: as for B1
B40: the binding result is “binds”.

B41: 108_D1 (scFv)
scFv: B1 scFv with G106T, M107P, T108W, A109K
notes: as for B1
For B41, the binding result is “binds”.

B42: 108_E12 (scFv)
scFv: B1 scFv with G106L, M107A, T108A, A109E
notes: as for B1
For the molecule B42, the binding result is reported as “binds”.

B43: 109_G12 (scFv)
scFv: B1 scFv with T108A
notes: as for B1
Turning to B43, the binding result is “binds”.

B44: 109_H1 (scFv)
scFv: B1 scFv with M107V, T108Q, A109K
notes: as for B1
For B44, the binding result is recorded as “binds”.

B45: 108_E4 (scFv)
scFv: B1 scFv with T108I, A109W
notes: as for B1
For the molecule B45, the binding result is “binds”.

B46: 109_H7 (scFv)
scFv: B1 scFv with G106F, M107P, T108R, A109W
notes: as for B1
On to B46, for which the binding result is on record as “binds”.

B47: 108_D9 (scFv)
scFv: B1 scFv with G106Y, M107P, T108Y, A109V
notes: as for B1
For B47, the binding result is “binds”.

B48: 108_D2 (scFv)
scFv: B1 scFv with G106A, M107P, T108W, A109V
notes: as for B1
Turning to B48, the binding result was “binds”.

B49: 108_E11 (scFv)
scFv: B1 scFv with W105C, G106S, M107R, A109S
notes: as for B1
As for B49, the binding result is “binds”.

B50: 109_H6 (scFv)
scFv: B1 scFv with G106F, M107P, T108R, A109T
notes: as for B1
Turning to B50, the binding result is “binds”.

B51: 108_E7 (scFv)
scFv: B1 scFv with T108W, A109R
notes: as for B1
B51: the binding result is on record as “binds”.

B52: 107_C6 (scFv)
scFv: B1 scFv with T108S, A109V
notes: as for B1
As for B52, the binding result was “binds”.

B53: 108_D11 (scFv)
scFv: B1 scFv with M107A, T108A
notes: as for B1
B53: the binding result is listed as “binds”.

B54: 109_H5 (scFv)
scFv: B1 scFv with M107A, T108Q, A109E
notes: as for B1
In the case of B54, the binding result is “binds”.
